What was measured:
[1] = target: human FcγRI (human) (UniProt P12314); assay: BLI (Octet Red96e), His-tagged human FcγRI on Anti-Penta-HIS biosensor, analyte 10-160 nM as printed on the sheet, 1:1 model [B]
[2] = target: human IL-1α (human) (UniProt P01583); assay: cell-based or functional assay
[3] = target: human IL-1β (human) (UniProt P01584); assay: cell-based or functional assay
[4] = target: human FcγRIIIA (human) (UniProt P08637); assay: BLI (Octet Red96e), His-tagged human FcγRIIIA on Anti-Penta-HIS biosensor, analyte 80-1280 nM, 1:1 model [B]
[5] = target: human IL-1β (human) (UniProt P01584); assay: ELISA, human IL-1β coated at 30 ng/well, detection with anti-human IgG Fc-HRP, OD 450 nm
[6] = target: human FcγRI (human) (UniProt P12314); assay: BLI, Octet Red96e; His-tagged FcγRI on anti-Penta-HIS sensor, 80-1,280 nM analyte; 1:1 model
[7] = target: Human FcRn (Homo sapiens) (UniProt P55899); assay: BLI (Octet Red96e), His-tagged human FcRn on Anti-Penta-HIS biosensor, pH 6.0, analyte 31.25-1000 nM, 1:1 model [A]
[8] = target: human FcγRIIIA (human) (UniProt P08637); assay: BLI, Octet Red96e; His-tagged FcγRIIIA on anti-Penta-HIS sensor, 80-1,280 nM analyte; 1:1 model
[9] = target: mouse IL-1α (mouse) (UniProt P01582); assay: SPR, Biacore T200; binder captured by anti-human Fc, cytokine injected; 1:1 Langmuir
[10] = target: mouse IL-1β (mouse) (UniProt P10749); assay: as above
[11] = target: human IL-1α (human) (UniProt P01583); assay: as above
[12] = target: rhesus monkey (Rhesus macaque) IL-1β (rhesus monkey (Rhesus macaque)) (UniProt P48090); assay: as above
[13] = target: human IL-1β (human) (UniProt P01584); assay: as above

Sequence of human FcγRI (human) (P12314 16-288 limits assumed): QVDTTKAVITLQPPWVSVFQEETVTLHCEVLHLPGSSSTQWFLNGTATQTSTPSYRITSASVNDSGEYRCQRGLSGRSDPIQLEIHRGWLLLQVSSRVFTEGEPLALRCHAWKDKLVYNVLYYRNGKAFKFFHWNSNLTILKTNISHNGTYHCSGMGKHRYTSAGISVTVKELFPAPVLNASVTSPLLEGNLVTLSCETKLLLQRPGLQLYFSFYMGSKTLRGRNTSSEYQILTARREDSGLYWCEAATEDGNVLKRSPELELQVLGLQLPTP
Sequence of Human FcRn (Homo sapiens) (P55899 24-297 limits assumed, chain 1 of 2): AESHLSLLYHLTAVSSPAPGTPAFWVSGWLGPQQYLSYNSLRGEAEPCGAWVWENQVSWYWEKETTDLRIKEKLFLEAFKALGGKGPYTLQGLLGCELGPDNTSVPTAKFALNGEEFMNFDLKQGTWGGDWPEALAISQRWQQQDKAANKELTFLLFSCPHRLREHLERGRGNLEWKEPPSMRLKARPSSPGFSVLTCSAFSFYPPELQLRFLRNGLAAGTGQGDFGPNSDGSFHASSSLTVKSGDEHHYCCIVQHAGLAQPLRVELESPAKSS
Sequence of Human FcRn (Homo sapiens) (chain, as listed by the source limits assumed, chain 2 of 2): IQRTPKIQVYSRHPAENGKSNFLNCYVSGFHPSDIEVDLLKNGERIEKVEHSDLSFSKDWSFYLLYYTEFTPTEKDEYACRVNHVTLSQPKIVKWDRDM
Sequence of mouse IL-1β (mouse) (P10749 118-269 limits assumed): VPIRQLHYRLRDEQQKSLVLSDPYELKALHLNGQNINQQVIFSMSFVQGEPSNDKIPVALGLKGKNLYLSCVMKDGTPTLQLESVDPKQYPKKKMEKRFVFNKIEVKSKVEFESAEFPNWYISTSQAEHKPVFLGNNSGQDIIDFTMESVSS
Sequence of human IL-1α (human) (P01583 113-271 limits assumed): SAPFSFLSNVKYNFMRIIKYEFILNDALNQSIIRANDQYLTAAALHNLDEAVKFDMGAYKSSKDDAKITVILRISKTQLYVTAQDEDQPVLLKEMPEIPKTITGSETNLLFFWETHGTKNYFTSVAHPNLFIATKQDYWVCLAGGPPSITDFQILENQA
Sequence of mouse IL-1α (mouse) (P01582 115-270 limits assumed): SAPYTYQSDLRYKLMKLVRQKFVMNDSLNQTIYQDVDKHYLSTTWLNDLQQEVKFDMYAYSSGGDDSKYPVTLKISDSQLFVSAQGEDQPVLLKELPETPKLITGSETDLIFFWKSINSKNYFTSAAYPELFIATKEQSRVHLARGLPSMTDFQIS
Sequence of human FcγRIIIA (human) (P08637 17-208 limits assumed): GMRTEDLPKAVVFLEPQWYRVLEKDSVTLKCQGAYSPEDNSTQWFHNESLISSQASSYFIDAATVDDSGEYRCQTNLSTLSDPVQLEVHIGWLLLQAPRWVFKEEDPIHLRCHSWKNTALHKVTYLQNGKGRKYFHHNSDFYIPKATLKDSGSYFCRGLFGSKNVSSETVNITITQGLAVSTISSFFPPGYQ

## rilonacept (Fc fusion)
[1]
  koff: 0.00209 s⁻¹
  kon: 45600 M⁻¹ s⁻¹
[2]
  SEAP secretion, IL-1β reporter HEK 293 cell line, 10 ng/ml human IL-1α: 0.308 nM
[3]
  EC50 of in vivo neutralisation: inhibition of the rise of serum IL-6 in C57BL/6 mice given human IL-1β (300 ng/kg i.p.) 24 h after s.c. rilonacept: 10.5 µg/kg
  IL-1β-mediated IL-6 secretion, A549 cell line, 1 ng/ml IL-1β: 37 pM
  SEAP secretion, IL-1β reporter HEK 293 cell line, 10 ng/ml human IL-1β: 0.243 nM
  inhibition of SEAP secretion at 4 nM, IL-1β reporter HEK 293 cell line: 99.5%
  inhibitory activity (%) on the IL-1β-induced rise of serum IL-6 in mice, at a 3-fold molar excess over the administered IL-1β: 50%
[4]
  koff: 0.0538 s⁻¹
  kon: 59000 M⁻¹ s⁻¹
[5]
  EC50: 0.0947 nM
[6]
  Kd: 45.8 nM
[7]
  Kd: 453 nM
  koff: 0.0489 s⁻¹
  kon: 108000 M⁻¹ s⁻¹
[8]
  Kd: 913 nM
[9]
  Kd: 0.0383 nM
  koff: 0.000178 s⁻¹
  kon: 4.66e+06 M⁻¹ s⁻¹
[10]
  Kd: 0.369 nM
  koff: 0.000328 s⁻¹
  kon: 890000 M⁻¹ s⁻¹
[11]
  Kd: 4.91 pM
  koff: 4.5e-05 s⁻¹
  kon: 9.18e+06 M⁻¹ s⁻¹
[12]
  Kd: 1.78 pM
  koff: 2.43e-05 s⁻¹
  kon: 1.36e+07 M⁻¹ s⁻¹
[13]
  Kd: 2.56 pM
  koff: 8.67e-05 s⁻¹
  kon: 3.39e+07 M⁻¹ s⁻¹
